Assay results reported in article PMC4128009.

Key:
Assay in all cases: pull-down
[1] = target: His6-Spx R112A (Bacillus subtilis) (UniProt O31602)
[2] = target: His6-Spx L114A (Bacillus subtilis) (UniProt O31602)
[3] = target: His6-Spx F113A (Bacillus subtilis) (UniProt O31602)

decrease of YjbH binding compared to the WT [1]: 80%
decrease of YjbH binding compared to the WT [2]: 50%
decrease of YjbH binding compared to the WT [3]: 80%
Substance: Geobacillus thermodenitrificans YjbH (GtYjbH), without tag (natural protein)
